Measurements as given in PMC9242856, “Structural basis of sodium-dependent bile salt uptake into the liver” (Nature, 2022).

Key:
[1] = biological target: NTCPEM expressed on HEK 293F cells (human) (UniProt Q14973)
[2] = biological target: T1, wild-type human Na+-taurocholate co-transporting polypeptide (NTCP) expressed on HEK 293F cells (human, UniProt Q14973); assay: fluorescent ligand labelling of cells (plate reader); HEK 293F cells expressing NTCP constructs in PBS; labelled with 10 nM (wild-type NTCP) or 50 nM (NTCPEM) purified myr-preS1_48-GFP for 30 min; where tested, pre-incubation with 10 uM nanobody for 1.5 h; GFP fluorescence, excitation 470 nm, emission 508 nm; settings: one partner purified
T1 construct: Na+-taurocholate co-transporting polypeptide (NTCP, SLC10A1), human, wild type; also called wild-type NTCP; SLC10A1; source: HEK 293F, transient transfection, on cells
T1 sequence (Q14973 whole entry): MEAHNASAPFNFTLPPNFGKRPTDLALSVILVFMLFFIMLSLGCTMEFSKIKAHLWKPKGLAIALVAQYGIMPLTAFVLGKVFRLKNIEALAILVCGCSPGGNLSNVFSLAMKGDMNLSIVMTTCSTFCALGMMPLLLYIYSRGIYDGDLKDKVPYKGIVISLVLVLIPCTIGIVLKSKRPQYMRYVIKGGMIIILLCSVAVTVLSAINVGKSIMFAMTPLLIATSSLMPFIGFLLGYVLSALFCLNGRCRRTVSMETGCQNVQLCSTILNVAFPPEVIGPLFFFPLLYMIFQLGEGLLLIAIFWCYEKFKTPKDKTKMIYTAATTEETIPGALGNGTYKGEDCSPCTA

Sequence of NTCPEM expressed on HEK 293F cells (human) (Q14973 other isoform, or with tags, fused parts or gaps, change not shown): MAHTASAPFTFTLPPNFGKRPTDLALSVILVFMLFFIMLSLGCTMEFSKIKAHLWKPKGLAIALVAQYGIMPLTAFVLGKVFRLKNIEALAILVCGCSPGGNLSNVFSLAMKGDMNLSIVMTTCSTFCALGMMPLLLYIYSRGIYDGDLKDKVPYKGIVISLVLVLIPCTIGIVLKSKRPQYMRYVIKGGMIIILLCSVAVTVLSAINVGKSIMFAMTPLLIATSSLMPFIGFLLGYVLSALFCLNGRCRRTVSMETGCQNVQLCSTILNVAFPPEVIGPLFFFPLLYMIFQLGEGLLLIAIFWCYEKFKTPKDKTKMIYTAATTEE

| Binder | IC50 of inhibition of Na+-induced uptake of the fluorescent substrate tauro-nor-THCA-24-DBD by cells expressing NTCPEM [1] [nM] | binding result [2] |
| --- | --- | --- |
| Nanobody 91 (VHH) VHH: QVQLVESGGGLVEAGGSLRLSCAASTNLRSYAMAWFRQAPGKEREFVSFINWNYGNTRYADSVKGRFTISRDNAKITVYLQMNSLKPEDTAVYYCAAATIGRLAGIDSTTLYDYWGQGTQVTVSS | 34 |  |
| Nanobody 87 (VHH, llama (Lama glama) nanobody raised against NTCPCO; the nanobody chain of PDB 7PQG; Tags are those of the phage display vector pMESy4 as told for the library; also called Nb87; source: E. coli periplasm, purified (Ni-NTA, SEC)) VHH: QVQLVESGGGLVQAGGSLRLSCAVSGRTTANYNMGWFRQAPGKEREFVAGIKWSSGSTYVADSAKGRFTISRDNAKNSVYLQMDSLKPEDTALYYCAANYYGVSWFLISPSSYDYWGQGTQVTVSS | 180 | binds |
